US20200048371A1 (Zymeworks, published 2020)

Experiments:
Assay in all cases: homogeneous cell binding assay on transfected HEK293-6e cells as in Example 8 (data not shown)
Human HER2 = biological target: T1, Human HER2 (human, UniProt P04626 23-1255)
T1 construct: whole, on cells
Method: (§1) Binding of constructs to target was assessed in HEK293-6e cells transiently expressing the target of interest.
(§2) Parental cells were maintained in 250 mL Erlenmeyer flasks (Corning, 431144) at 37° C., 5% CO2 in a rotating humidified incubator at 115 rpm. HEK293-6e cells were re-suspended to 1×10⁶ cells/mL in fresh Freestyle media before transfection. […] The DNA vectors that were used to express targets of interest were pTT5 vectors with full length targets of interest including Human Dectin-1, Human DEC205, Human CD40, Human HER2, Human ROR1 and mock vector containing GFP. The cells were incubated for 24 hours at 37° C. and 5% CO2 in a rotating humidified incubator at 115 rpm.
(§3) Construct samples were prepared at starting concentrations of 40 nM final in FACS buffer or 1×PBS pH 7.4 (Gibco, 1001023)+2% FBS in Eppendorf tubes. Samples were titrated in duplicate 1:4 down to 0.04 nM directly in the 384-well black optical bottom assay plate (Thermo Fisher, 142761). HEK293-6e cells expressing target of interest were harvested and re-suspended in FACS buffer at 10,000 cells per 30 μl. To visualize cell nuclei as a focusing channel, Vybrant™ DyeCycle™ Violet nuclear stain (Life Tech, V35003) was added to cells at 2 μM final concentration. To detect binding of test construct sample to cells, Goat anti-Human IgG Fc A647 (Jackson ImmunoResearch, 115-605-071) was added to cells at 0.6 μg/mL final. The cells were vortexed briefly to mix and plated at 10,000 cells/well. The plate was incubated at room temperature for 3 hours before scanning. Data analysis was performed on the CellInsight™ with the HCS high content screening platform (Thermo Scientific), using BioApplication “CellViability” with a 10× objective. Samples were scanned on the 385 nm channel to visualize nuclear staining and channel 650 nm to assess cell binding. The mean object average fluorescence intensity of A647 was measured on channel 2 to determine binding intensity on all cell conditions.

Human CD40 = biological target: T2, Human CD40 (human, UniProt P25942 21-277)
T2 construct: whole, on cells
Method: as §1, §2, §3

Human DEC205 = biological target: T3, Human DEC205 (human, UniProt O60449 28-1722)
T3 construct: whole, on cells
Method: as §1, §2, §3

T3 sequence (O60449 28-1722): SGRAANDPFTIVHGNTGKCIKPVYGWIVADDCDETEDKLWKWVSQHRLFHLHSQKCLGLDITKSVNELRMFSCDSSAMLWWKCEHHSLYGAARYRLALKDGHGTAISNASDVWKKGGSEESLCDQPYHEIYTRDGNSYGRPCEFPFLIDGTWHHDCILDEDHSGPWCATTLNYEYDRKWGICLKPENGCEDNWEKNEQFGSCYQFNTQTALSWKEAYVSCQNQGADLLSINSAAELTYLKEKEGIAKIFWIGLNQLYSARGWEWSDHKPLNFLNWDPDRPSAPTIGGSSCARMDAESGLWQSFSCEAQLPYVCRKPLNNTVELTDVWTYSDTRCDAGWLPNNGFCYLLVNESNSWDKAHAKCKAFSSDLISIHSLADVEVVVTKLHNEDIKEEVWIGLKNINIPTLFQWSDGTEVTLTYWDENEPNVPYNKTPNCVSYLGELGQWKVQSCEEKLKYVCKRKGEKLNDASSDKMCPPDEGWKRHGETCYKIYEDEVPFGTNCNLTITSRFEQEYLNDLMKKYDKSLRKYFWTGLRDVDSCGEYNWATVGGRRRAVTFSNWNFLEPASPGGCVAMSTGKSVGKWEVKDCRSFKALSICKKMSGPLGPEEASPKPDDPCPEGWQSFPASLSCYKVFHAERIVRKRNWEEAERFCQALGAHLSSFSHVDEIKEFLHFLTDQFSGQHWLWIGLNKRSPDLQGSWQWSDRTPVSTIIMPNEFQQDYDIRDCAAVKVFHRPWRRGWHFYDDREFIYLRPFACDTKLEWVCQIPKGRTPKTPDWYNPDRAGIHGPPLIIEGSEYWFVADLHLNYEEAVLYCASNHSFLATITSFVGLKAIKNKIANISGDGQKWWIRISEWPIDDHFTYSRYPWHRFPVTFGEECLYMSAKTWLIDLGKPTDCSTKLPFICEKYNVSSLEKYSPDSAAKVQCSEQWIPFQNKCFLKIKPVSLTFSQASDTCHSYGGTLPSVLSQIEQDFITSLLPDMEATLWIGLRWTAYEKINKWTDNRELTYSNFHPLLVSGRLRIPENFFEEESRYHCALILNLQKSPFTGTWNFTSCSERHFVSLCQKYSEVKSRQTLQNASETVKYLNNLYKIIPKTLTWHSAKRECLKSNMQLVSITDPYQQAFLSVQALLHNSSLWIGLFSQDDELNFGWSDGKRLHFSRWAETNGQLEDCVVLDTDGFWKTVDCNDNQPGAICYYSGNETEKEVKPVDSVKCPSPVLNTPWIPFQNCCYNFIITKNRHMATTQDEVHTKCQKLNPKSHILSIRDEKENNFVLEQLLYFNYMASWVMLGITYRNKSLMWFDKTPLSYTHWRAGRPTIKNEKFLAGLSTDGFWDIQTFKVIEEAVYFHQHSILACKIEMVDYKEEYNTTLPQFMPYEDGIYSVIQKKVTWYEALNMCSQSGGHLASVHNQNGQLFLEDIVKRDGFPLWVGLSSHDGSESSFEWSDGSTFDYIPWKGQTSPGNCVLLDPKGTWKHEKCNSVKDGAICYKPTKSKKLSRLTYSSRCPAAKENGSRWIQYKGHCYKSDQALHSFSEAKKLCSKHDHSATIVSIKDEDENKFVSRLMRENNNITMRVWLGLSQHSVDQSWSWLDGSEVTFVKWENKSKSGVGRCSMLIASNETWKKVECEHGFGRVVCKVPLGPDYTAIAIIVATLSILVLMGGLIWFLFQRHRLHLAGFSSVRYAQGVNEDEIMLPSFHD
T2 sequence (P25942 21-277): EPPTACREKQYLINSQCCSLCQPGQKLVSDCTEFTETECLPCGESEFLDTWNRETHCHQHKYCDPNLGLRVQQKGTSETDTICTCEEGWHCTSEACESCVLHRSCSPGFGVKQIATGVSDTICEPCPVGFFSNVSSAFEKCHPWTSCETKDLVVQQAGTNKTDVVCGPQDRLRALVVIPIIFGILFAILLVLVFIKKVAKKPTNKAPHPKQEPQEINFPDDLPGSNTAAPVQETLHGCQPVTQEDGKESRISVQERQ

| binding result (Human HER2) | binding result (Human CD40) | binding result (Human DEC205) | Binder |
| --- | --- | --- | --- |
| binds | binds |  | construct 18532 (CD40 X HER2; 12E12, Pertuzumab; Fab x scFv) (bispecific antibody, human IgG1, kappa, L234A L235A, also called v18532; Her2×CD40) heavy: not shown light: DIQMTQTTSSLSASLGDRVTISCSASQGISNYLNWYQQKPDGTVKLLIYYTSILHSGVPSRFSGSGSGTDYSLTIGNLEPEDIATYYCQQFNKLPPTFGGGTKLEIKRTVAAPSVFIFPPSDEQLKSGTASVVCLLNNFYPREAKVQWKVDNALQSGNSQESVTEQDSKDSTYSLSSTLTLSKADYEKHKVYACEVTHQGLSSPVTKSFNRGEC scFv: DIQMTQSPSSLSASVGDRVTITCKASQDVSIGVAWYQQKPGKAPKLLIYSASYRYTGVPSRFSGSGSGTDFTLTISSLQPEDFATYYCQQYYIYPATFGQGTKVEIKVEGGSGGSGGSGGSGGVDEVQLVESGGGLVQPGGSLRLSCAASGFTFADYTMDWVRQAPGKGLEWVGDVNPNSGGSIYNQRFKGRFTFSVDRSKNTLYLQMNSLRAEDTAVYYCARNLGPSFYFDYWGQGTLVTVSSAAEPKSSDKTHTCPPCPAPEAAGGPSVFLFPPKPKDTLMISRTPEVTCVVVSVSHEDPEVKFNWYVDGVEVHNAKTKPREEQYNSTYRVVSVLTVLHQDWLNGKEYKCKVSNKALPAPIEKTISKAKGQPREPQVYVLPPSRDELTKNQVSLLCLVKGFYPSDIAVEWESNGQPENNYLTWPPVLDSDGSFFLYSKLTVDKSRWQQGNVFSCSVMHEALHNHYTQKSLSLSPG |
| binds |  | binds | construct 18529 (DEC-205 X HER2; 3G9, Pertuzumab; Fab x scFv) (bispecific antibody, human IgG1, kappa, L234A L235A, Three polypeptides A, B and C; also called Her2×Dec205) heavy: not shown light: not shown scFv: DIQMTQSPSSLSASVGDRVTITCKASQDVSIGVAWYQQKPGKAPKLLIYSASYRYTGVPSRFSGSGSGTDFTLTISSLQPEDFATYYCQQYYIYPATFGQGTKVEIKVEGGSGGSGGSGGSGGVDEVQLVESGGGLVQPGGSLRLSCAASGFTFADYTMDWVRQAPGKGLEWVGDVNPNSGGSIYNQRFKGRFTFSVDRSKNTLYLQMNSLRAEDTAVYYCARNLGPSFYFDYWGQGTLVTVSSAAEPKSSDKTHTCPPCPAPEAAGGPSVFLFPPKPKDTLMISRTPEVTCVVVSVSHEDPEVKFNWYVDGVEVHNAKTKPREEQYNSTYRVVSVLTVLHQDWLNGKEYKCKVSNKALPAPIEKTISKAKGQPREPQVYVLPPSRDELTKNQVSLLCLVKGFYPSDIAVEWESNGQPENNYLTWPPVLDSDGSFFLYSKLTVDKSRWQQGNVFSCSVMHEALHNHYTQKSLSLSPG |
